The DeepSol protein solubility set

assay: soluble on expression in E. coli; label from the status in PepcDB or PDB records

Row | Sequence | soluble on expression in E. coli
1 | MGGIFSKKEKSPKSAPVSDQDNAILALKTQRDKMKQMIKRKENCLEKERQLAKQLIKDGRKDRALLLLKKKRYQEKIIDQTLNHLSKIEQMVNDLEFAEVQQRVTDGLRQGNEALKKMNQLFDIDEIDRIMEETKEAAEYQEEISNMLSGQLSNTDVSDVEKELEDLLAAEWGTVQLPEAPSHELPEAERERQKEKEKPRREKIALEA | not soluble
2 | MGSDKIHHHHHHLISTANITMQFGPEPLFENISAQFGHGNRYGLIGANGCGKSTFMKILSGALAPTSGNVSITPGLKVGNLSQDQFAFEQHSVIDTVIMGDMKLWKVKQEREAIYAKPDMTDEDGMRVGDLESEFAEMDGYSAESRAGEILIEAGIDESMHFGLMQQVPPGKKLRVLLAQALFANPDILLLDEPTNNLDIHTISWLETELNKRKCTMIIISHDRHFLNAVCTHMADIDYGELRIYPGNYEFFLAQSSLIREQLLAGNAKKSAEIDELQDFVNRFGANASKAKQASSRAKKMDKIKLDDVKSSSRITPSIRFEAGKKMHRQALILEGLGHGFDEGMLFTGGDLILEAGAKLAIIGENGVGKTTLLRCLVNELSHKEGVVKWSENAAVGYCPQDSSADFDNDLTLMDWMSQWRLPKHNDLMVRGMLGRLLFTEDDANKKARNCSGGEKNRLLFGKLMMQDVNVLIMDEPTNHMDMEAIEALNNALKDFEGTLIFVSHDREFVSSLATRVIDIKDKKLINFQGSFDEYLASQSEAQKIA | not soluble
3 | MSLSDINNMAYGISDMLGSIDNLAMFDLVVPHFRGKENECLFGMFGRATTTLQGGKIAKHVQEIFAETLTAHLHKLEPGEEPSEALRRTFLWGDRKAFEFFSGKLQLEKERKPSWTSFASFDSMFRGWTPGVNSVLRTGASGAVVYLVDKVLHVGSIGDTLVVLSRKGDAELLSKRHDPTDREESARIRKAEAWVSTKGFVNDDKDLDISRAFGYWHECPAVNAAPEIRTRRLQESDEFVIIGNHALWQFCSYQTAVDIARTERDDPMIAAQKLRDFAISYGAEGNVMVMVVNVSDLFLGKEGHHHHHH | not soluble
4 | MKQKEYMEYRPLGEEIERIRKGKNIPLRVFDENGVSSRSYQRFVQGNSELRISDLAIIVEILSISPMEMTEKLTPMSKTVLAKEQFNQAIFSKNFQESSRIVADYRAYYEKSSFALGKQEVMYSMLALEYLFNPQTVVTKEEIIALENQILERLINADVYTIFNLKFLALQKNVGLQPFPTSLLFRVLQSVNEREIIDIRSLEIIEQVIIDFLFAAIVSQNVPHILHVLSMFKEYEVGENNWRMILWKKIAEKIEMILTNEEIFADWSIFKEQILLSITLFLPKAKQEFFAGQLEKIEDSLKEIKEN | not soluble
5 | MGSDKIHHHHHHMKISEFEGPLDLLLHLIRQNKMDIYDIPIAAITQQYLDYLHSMRALKLDIAGDYLVMAATLMTIKSRFLLPQPEPDEMDEDNEDDDPRDSLVAELLAYKVYQEAAGELREKEQARHQHFTREAMLVPADLSAPKLTAGITLDDLQAAFRQLVAKRRRVRPLTKTVVAETINIDERMTQITTQLQHQPQGLDFADLFTVSASDEMLVTTFMAVLELTKQDQVALQQAEPLSPIHLYLRQDEQHDEH | not soluble
6 | MGSDKIHHHHHHMKNLLGYSEDYLKERKGYITAKEICNQPKLWRETYEIILSQREKLKSFLDNFAKKPNAKIVITGAGSSAFVGNSVVSYLNAKENIKIEAIATTDIVSHPFYYLKKDEPTLLISCARSGNSPESTAAVTLAEKIVDDISHLIITCNSEGKLALHAKRNYNSFLLLMPEESNDKGFAMTGSFSTMLLSCLLIFNLDKLESIGKQIESISMQGEKVLVNNVELMKKIVGEKFKRTVYLGAANAFGLAKESALKVLELTAGKIATLYDTPLGFRHGPKSIIDDETLIVIFFSNDTYAREYEYDLLKEVYSQNGNHKVLAISEYEDKLIEDNSDYFIAINKEEQEYEDDSFLSLDYLLNAQMYAFINSMELGIGPDNPCPTGEVNRVVKGVIIHDYR | not soluble
7 | MFFERHGGGERAILVHLDGQDPEAREDPQEFQELALSAGAETVAFVSVPRHRPTAKYLVGSGKVEELRDLVKAEQVDLVIFNHILTPSQERNLERVFECRVIDRTGLILDIFAQRARTHEGKLQVELAQLEHMSTRLVRGWTHLERQKGGIGLRGPGETQLETDRRLLRVRLRQIKARLEKVRSQREQARRGRKRADIPSVSLVGYTNAGKSTLFNAVTASDVFAADQLFATLDPTLRRLELDDLGPIVLADTVGFIRHLPHKLVEAFRATLEESSNSDLLLHVIDAHEPERMAQIEQVMVVLGEIGAQDLPILEVYNKLDLLEGVEPQIQRDPDGKPQRVWLSARDGQGLDLLKQAIAELLGEDLFVGTLRLPQRFARLRAQFFQLNAVQKEDHDDEGVSLLAVRLPRAELNRLVSREGMQPSEFIEQHTLQLEHHHHHH | soluble
8 | MGLIDVLKSFKSPSGREIRILLLGLDNAGKTTILKQLSSEDVQHVTPTKGFNVKTVAAMGDIRLNVWDIGGQRSIRPYWSNYYENIDTLIFVIDSNDKKRFDEMNIELGELLDEEKLRKVPVLIFANKQDLVTAASSEEITRKLNLDLLRDRTWHIQACSALKNEGINDGITWVASNLKPASKK | not soluble
9 | MQFLSIGVNDDADSLKEYLINELARNNKKNINYLVRDVADSEGSTSIICSLADNDAPSDMNSHLYKELVLNVSNALATFIIDKYEEKLIYRIINSNYCYFTQAERKEIQRLTLAIIKNEERNLLNSFFQIRRKNIIIKRLLEYFESSNTVILDGFVNFRLKDYMKDLEEIVEKAVDDFLMEREYREFIRLLRYFVDIQEPKFNAVHIIAGYDNKYVLLDENKNEITNECLQEFVNDIPEGEINYDDLLVSSLITMAPRKLVIHGAKSFRNKELLETIKNVFWGKVVICSECELCMVNMVRSENKSQI | not soluble
10 | MGAAGDAAIGRESRELMSAANVGRTISRIAHQIIEKTALDDPVGPDAPRVVLLGIPTRGVTLANRLAGNITEYSGIHVGHGALDITLYRDDLMIKPPRPLASTSIPAGGIDDALVILVDDVLYSGRSVRSALDALRDVGRPRAVQLAVLVDRGHRELPLRADYVGKNVPTSRSESVHVRLREHDGRDGVVISRGSHHHHHH | soluble
11 | MDRLIRSLLMNQNKQATDKLDHPDTSETVNISSLALLKMLRHARSGIPLEVMGLMLGDFVDDYTINVTDVFAMPQSGTSVTVESVDPVYQTKHMDLLKLVGRTENVVGWYHSHPGFGCWLSSVDVNTQQSFEALHPRAVAVVVDPIQSVKGKVMLDAFRSVNPLNLQIRPLAPTAEPRQTTSNLGHLTKPSLISVVHGLGTKYYSLNVAYRMGSNEQKMLMCLNKKSWYDQLNMSTYSELEKKQEEKFKSINKLIAVFNKDIDEVKEKPIADKKGKTQEEVKKFGKINAKQQLQMITSSLLNDSLCHQLTAMINAKSMT | not soluble
12 | VPVPPAADHKGWDFVEGYFHQFFLTKKESPLLTQETQTQLLQQFHRNGTDLLDMQMHALLHQPHCGVPDGSDTSISPGRCKWNKHTLTYRIINYPHDMKPSAVKDSIYNAVSIWSNVTPLIFQQVQNGDADIKVSFWQWAHEDGWPFDGPGGILGHAFLPNSGNPGVVHFDKNEHWSASDTGYNLFLVATHEIGHSLGLQHSGNQSSIMYPTYWYHDPRTFQLSADDIQRIQHLYGEKCSSDIP | soluble
13 | ADNEEDVEAEEEYTELTDISGVGPSKAESLREAGFESVEDVRGADQSALADVSGIGNALAARIKADVGGLEVESETEAEVEEEGGEEAPDEDVETELQARGLTEKTPDLSDEDARLLTQRHRVGKPQFNRQDHHKKKRVSTSWRKPRGQLSKQRRGIKGKGDTVEAGFRSPTAVRGKHPSGFEEVRVHNVDDLEGVDGDTEAVRIASKVGARKRERIEEEAEDAGIRVLNPTYVEVEVSE | soluble
14 | MLRRYSHFYSIRYSSTLLSTLDGLTNRTSGDKLLTYSEKFSKLYANSTPETRKSIFVDLVTNYGVNKEALNHAISLYSKNDQMYPEVRTSATASYVNLIKSIGNLPGGVMQVCEMRANILALLKRETDKTTTSYLRHIELATREVLTSWFSLGNLKLERLTWSSPGDILQKVAEYEAVHPVRGLSDFRKRLGPLRRCFYFSHEALPRNPLVMVHVALVDEIADSVQEITKRGAPTGKEEDQTTAIYYSITSTQPGLSGIDLGNMLIKKVATKLQKDVPSVTTHSTLSPIPGFRPWLIRNLKGNSEYPSIMNEKVVNWISDISEREMNEVEATETLLKVISNEKTKKEQLNAIQHILMYACAHYLCNAKRNGMALNSVANFHIRNGAELYRLNWNGDTSHRGINNSFGIMVNYRYDLEKVHENSAAYTEHKKMAINQKVLDIF | not soluble
15 | MASDYKDDDDKRRRGMEGAKLSAVRIAVREAPYRQFLGRREPSVVQFPPWSDGKSLIVDQNEFHFDHAFPATISQDEMYQALILPLVDKLLEGFQCTALAYGQTGTGKSYSMGMTPPGEILPEHLGILPRALGDIFERVTARQENNKDAIQVYASFIEIYNEKPFDLLGSTPHMPMVAARCQRCTCLPLHSQADLHHILELGTRNRRVRPTNMNSNSSRSHAIVTIHVKSKTHHSRMNIVDLAGSEGVRRTGHEGVARQEGVNINLGLLSINKVVMSMAAGHTVIPYRDSVLTTVLQASLTAQSYLTFLACISPHQCDLSETLSTLRFGTSAKAAALEHHHHHH | soluble
16 | MGSDKIHHHHHHAQEERNQGIIWSYLHGWEYGIKAGFSIGGTSPLPLPEEIRKIDSYAPGGLAISIEGNATKWFDTKWGMTVGVRLENKNMTTEATVKNYGMKIINTNGGELQGLWTGGVKTKVKNSYLTIPVVANYKVSKRWKVSAGPYVSYLIERNFSGHVYEGHLRTPDQTGSRVDFTGESIATYDFSDNLRKFQWGLQLGGEWRAFKHLNVYADLTWGLNDIFKKDFDTISFAMYPIYLNIGFGYAF | not soluble
17 | MSKIDFHTHYLPTSYVEALKRHVPGDPDGWPTPEWTPQLTLNFMRDNDISYSILSLSSPHVNFGDKAETIRLVEAANDDGKSLAQQYPDQLGYLASLPIPYELDAVKTVQQALDQDGALGVTVPTNSRGLYFGSPVLERVYQELDARQAIVALHPNEPAILPKNVDIDLPVPLLGFFMDTTMTFINMLKYHFFEKYPNIKVIIPHAGAFLGIVDDRIAQYAQKVYQVDVYDVMHHVYFDVAGAVLPRQLPTLMSLAQPEHLLYGSDIPYTPLDGSRQLGHALATTDLLTNEQKQAIFYDNAHRLLTELEHHHHHH | soluble
18 | MNRSLANVILGGYGTTSTAGGKPMEISGTHTEINLDNAIDMIREANSIIITPGYGLCAAKAQYPIADLVKMLTEQGKKVRFGIHPVAGRMPGQLNVLLAEAGVPYDIVLEMDEINHDFPDTDLVLVIGANDTVNSAAQEDPNSIIAGMPVLEVWKSKQVIVMKRSLGVGYAAVDNPIFYKPNTAMLLGDAKKTCDALQAKVRESYQK | soluble
19 | LLAKEKYNGTESDDKYDPVEIVKWKIDREDGRKTLNSYINVLVLGLDDDEKRSDVIALINYNPDENKMNILSIARDTRVKVNGKYMKINALIGKGGEKMVIDMVEDITGLPVDYYVTLNFKGFREIVDTLGGVEINVPFDMDYDDPYQNLHIHLKKGKQVLDGKKAEQFVRYRKGNHNGEGYEDGDLGRIKMQQLFMREFVNQKLKLKYLLKADEIFYTLKKNMRTNIEIGDIRYFIKDIKNIKTPEINGYTLPGYSRYIGGQWFYIYDKKKTKELIEQNFYYSN | soluble
20 | MGHHHHHHSHMEYSYIPSFALYNNADMFQFFPRNKRLSTHQKSCLDEHARKMAVFMMKRQEEYRYYENLANQEQFSDDAHFSDNGMDSGFCSGATSTGQSASTSPAPVQLIPNPFFDPEAKTQSPVKLVDNPELFMESKKKSARISA | not soluble
